Reference: the supplement of paper PMC10567573

B1: ZNF449 (parent)
chain: QLTGHQRIHSGEEPHKCPECGKRF
B2: C8orf76 (parent)
chain: YCAKLCEPQWFYEETESSDDVEVL

Variants of: B1
Assay: protein stability index of a GFP-peptide fusion (GPS, HEK-293T) (PSI 1-6); higher = more stable
Conditions: c terminus: a fixed tail appended
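Note: lentivirally expressed fusions sorted by FACS into six bins by GFP to DsRed ratio, PSI derived from sequencing read proportions per bin multiplied by bin number.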

**Q.** With QLTGHQRIHSGEEPHKCPECGKRH as the variant, how does the protein stability index read?
**A.** 4.84

**Q.** For QLTGHQRIHSGEEPHKCPECGKRQ, which protein stability index is on record?
**A.** 4.62

**Q.** With QLTGHQRIHDGEEPHKCPECGKRF as the variant, how does the protein stability index read?
**A.** 4.33

**Q.** With QLTGHQRIHPGEEPHKCPECGKRF as the variant, how does the protein stability index read?
**A.** 4.47

**Q.** For QLTGHQRIHVGEEPHKCPECGKRF, which protein stability index is on record?
**A.** 4.09

**Q.** For QLTGHQRIHWGEEPHKCPECGKRF, which protein stability index is on record?
**A.** 4.31

**Q.** For QLTGHQRIHTGEEPHKCPECGKRF, which protein stability index is on record?
**A.** 4.35

**Q.** For QLTGHQRIHIGEEPHKCPECGKRF, which protein stability index is on record?
**A.** 3.6

Variants of: B2
Assay: as above
Conditions: c terminus: a fixed tail appended

**Q.** For YCANLCEPQWFYEETESSDDVEVL, which protein stability index is on record?
**A.** 4.3

**Q.** With YCACLCEPQWFYEETESSDDVEVL as the variant, how does the protein stability index read?
**A.** 2.96

**Q.** Which protein stability index does the source give for YCARLCEPQWFYEETESSDDVEVL here?
**A.** 2.54

**Q.** With YCAHLCEPQWFYEETESSDDVEVL as the variant, how does the protein stability index read?
**A.** 2.84

**Q.** For YCADLCEPQWFYEETESSDDVEVL, which protein stability index is on record?
**A.** 3.69

**Q.** Which protein stability index does the source give for YCATLCEPQWFYEETESSDDVEVL here?
**A.** 2.94

**Q.** Which protein stability index does the source give for YCALLCEPQWFYEETESSDDVEVL here?
**A.** 2.71

**Q.** Which protein stability index does the source give for YCAQLCEPQWFYEETESSDDVEVL here?
**A.** 3.46

**Q.** Which protein stability index does the source give for YCAMLCEPQWFYEETESSDDVEVL here?
**A.** 2.48

**Q.** With YCAPLCEPQWFYEETESSDDVEVL as the variant, how does the protein stability index read?
**A.** 2.43

**Q.** With YCAFLCEPQWFYEETESSDDVEVL as the variant, how does the protein stability index read?
**A.** 2.56

**Q.** Which protein stability index does the source give for YCAILCEPQWFYEETESSDDVEVL here?
**A.** 2.29

**Q.** Which protein stability index does the source give for YCAGLCEPQWFYEETESSDDVEVL here?
**A.** 1.98

**Q.** With YCAELCEPQWFYEETESSDDVEVL as the variant, how does the protein stability index read?
**A.** 4.61

**Q.** For YCASLCEPQWFYEETESSDDVEVL, which protein stability index is on record?
**A.** 2.01

**Q.** With YCAWLCEPQWFYEETESSDDVEVL as the variant, how does the protein stability index read?
**A.** 2.08

**Q.** With YCAALCEPQWFYEETESSDDVEVL as the variant, how does the protein stability index read?
**A.** 2.54

**Q.** For YCAYLCEPQWFYEETESSDDVEVL, which protein stability index is on record?
**A.** 3.2

**Q.** With YCAVLCEPQWFYEETESSDDVEVL as the variant, how does the protein stability index read?
**A.** 3.05

**Q.** With YCAKHCEPQWFYEETESSDDVEVL as the variant, how does the protein stability index read?
**A.** 2.72

**Q.** Which protein stability index does the source give for YCAKACEPQWFYEETESSDDVEVL here?
**A.** 2.62

**Q.** With YCAKDCEPQWFYEETESSDDVEVL as the variant, how does the protein stability index read?
**A.** 3.42

**Q.** Which protein stability index does the source give for YCAKGCEPQWFYEETESSDDVEVL here?
**A.** 2.99

**Q.** With YCAKECEPQWFYEETESSDDVEVL as the variant, how does the protein stability index read?
**A.** 2.94

**Q.** For YCAKFCEPQWFYEETESSDDVEVL, which protein stability index is on record?
**A.** 2.29

**Q.** With YCAKMCEPQWFYEETESSDDVEVL as the variant, how does the protein stability index read?
**A.** 2.97

**Q.** With YCAKKCEPQWFYEETESSDDVEVL as the variant, how does the protein stability index read?
**A.** 2.05

**Q.** With YCAKCCEPQWFYEETESSDDVEVL as the variant, how does the protein stability index read?
**A.** 3.03

**Q.** Which protein stability index does the source give for YCAKICEPQWFYEETESSDDVEVL here?
**A.** 1.98

**Q.** With YYAKLCEPQWFYEETESSDDVEVL as the variant, how does the protein stability index read?
**A.** 2.87

**Q.** With YQAKLCEPQWFYEETESSDDVEVL as the variant, how does the protein stability index read?
**A.** 2.51

**Q.** Which protein stability index does the source give for YNAKLCEPQWFYEETESSDDVEVL here?
**A.** 2.91

**Q.** With YIAKLCEPQWFYEETESSDDVEVL as the variant, how does the protein stability index read?
**A.** 2.65

**Q.** For YLAKLCEPQWFYEETESSDDVEVL, which protein stability index is on record?
**A.** 2.94

**Q.** With YTAKLCEPQWFYEETESSDDVEVL as the variant, how does the protein stability index read?
**A.** 3.22

**Q.** Which protein stability index does the source give for YDAKLCEPQWFYEETESSDDVEVL here?
**A.** 4.96

**Q.** With YMAKLCEPQWFYEETESSDDVEVL as the variant, how does the protein stability index read?
**A.** 3.62

**Q.** Which protein stability index does the source give for YFAKLCEPQWFYEETESSDDVEVL here?
**A.** 2.59

**Q.** With YKAKLCEPQWFYEETESSDDVEVL as the variant, how does the protein stability index read?
**A.** 4.17

**Q.** Which protein stability index does the source give for YAAKLCEPQWFYEETESSDDVEVL here?
**A.** 1.94

**Q.** For YPAKLCEPQWFYEETESSDDVEVL, which protein stability index is on record?
**A.** 4.2

**Q.** For YVAKLCEPQWFYEETESSDDVEVL, which protein stability index is on record?
**A.** 2.1

**Q.** Which protein stability index does the source give for YGAKLCEPQWFYEETESSDDVEVL here?
**A.** 3.72

**Q.** With YHAKLCEPQWFYEETESSDDVEVL as the variant, how does the protein stability index read?
**A.** 1.68

**Q.** With YWAKLCEPQWFYEETESSDDVEVL as the variant, how does the protein stability index read?
**A.** 2.82

**Q.** With YSAKLCEPQWFYEETESSDDVEVL as the variant, how does the protein stability index read?
**A.** 3.63

**Q.** For YRAKLCEPQWFYEETESSDDVEVL, which protein stability index is on record?
**A.** 4.17

**Q.** With YEAKLCEPQWFYEETESSDDVEVL as the variant, how does the protein stability index read?
**A.** 4.91

**Q.** With YCRKLCEPQWFYEETESSDDVEVL as the variant, how does the protein stability index read?
**A.** 1.75

**Q.** With YCNKLCEPQWFYEETESSDDVEVL as the variant, how does the protein stability index read?
**A.** 2.74

**Q.** With YCIKLCEPQWFYEETESSDDVEVL as the variant, how does the protein stability index read?
**A.** 2.51

**Q.** With YCFKLCEPQWFYEETESSDDVEVL as the variant, how does the protein stability index read?
**A.** 2.3

**Q.** Which protein stability index does the source give for YCMKLCEPQWFYEETESSDDVEVL here?
**A.** 3.1

**Q.** Which protein stability index does the source give for YCHKLCEPQWFYEETESSDDVEVL here?
**A.** 2.59

**Q.** Which protein stability index does the source give for YCPKLCEPQWFYEETESSDDVEVL here?
**A.** 1.71

**Q.** Which protein stability index does the source give for YCLKLCEPQWFYEETESSDDVEVL here?
**A.** 2.78

**Q.** Which protein stability index does the source give for YCVKLCEPQWFYEETESSDDVEVL here?
**A.** 3.04

**Q.** Which protein stability index does the source give for YCCKLCEPQWFYEETESSDDVEVL here?
**A.** 2.7

**Q.** Which protein stability index does the source give for YCEKLCEPQWFYEETESSDDVEVL here?
**A.** 4.06

**Q.** For YCWKLCEPQWFYEETESSDDVEVL, which protein stability index is on record?
**A.** 1.95

**Q.** With YCQKLCEPQWFYEETESSDDVEVL as the variant, how does the protein stability index read?
**A.** 2.28

**Q.** For YCSKLCEPQWFYEETESSDDVEVL, which protein stability index is on record?
**A.** 2.78

**Q.** For YCKKLCEPQWFYEETESSDDVEVL, which protein stability index is on record?
**A.** 3.07

**Q.** Which protein stability index does the source give for YCDKLCEPQWFYEETESSDDVEVL here?
**A.** 3.48

**Q.** Which protein stability index does the source give for YCGKLCEPQWFYEETESSDDVEVL here?
**A.** 2.01

**Q.** With YCTKLCEPQWFYEETESSDDVEVL as the variant, how does the protein stability index read?
**A.** 2.45

**Q.** Which protein stability index does the source give for YCYKLCEPQWFYEETESSDDVEVL here?
**A.** 2.83

**Q.** For MCAKLCEPQWFYEETESSDDVEVL, which protein stability index is on record?
**A.** 4.26

**Q.** For CCAKLCEPQWFYEETESSDDVEVL, which protein stability index is on record?
**A.** 4.28

**Q.** With PCAKLCEPQWFYEETESSDDVEVL as the variant, how does the protein stability index read?
**A.** 4.76

**Q.** With NCAKLCEPQWFYEETESSDDVEVL as the variant, how does the protein stability index read?
**A.** 5.01

**Q.** For KCAKLCEPQWFYEETESSDDVEVL, which protein stability index is on record?
**A.** 4.66

**Q.** Which protein stability index does the source give for RCAKLCEPQWFYEETESSDDVEVL here?
**A.** 4.92

**Q.** For LCAKLCEPQWFYEETESSDDVEVL, which protein stability index is on record?
**A.** 3.71

**Q.** Which protein stability index does the source give for ECAKLCEPQWFYEETESSDDVEVL here?
**A.** 4.99

**Q.** With VCAKLCEPQWFYEETESSDDVEVL as the variant, how does the protein stability index read?
**A.** 4.2

**Q.** Which protein stability index does the source give for WCAKLCEPQWFYEETESSDDVEVL here?
**A.** 3.66

**Q.** Which protein stability index does the source give for TCAKLCEPQWFYEETESSDDVEVL here?
**A.** 5.11

**Q.** For FCAKLCEPQWFYEETESSDDVEVL, which protein stability index is on record?
**A.** 1.91

**Q.** Which protein stability index does the source give for HCAKLCEPQWFYEETESSDDVEVL here?
**A.** 4.36

**Q.** With QCAKLCEPQWFYEETESSDDVEVL as the variant, how does the protein stability index read?
**A.** 4.45

**Q.** For ICAKLCEPQWFYEETESSDDVEVL, which protein stability index is on record?
**A.** 3.45

**Q.** Which protein stability index does the source give for DCAKLCEPQWFYEETESSDDVEVL here?
**A.** 5.04

**Q.** For ACAKLCEPQWFYEETESSDDVEVL, which protein stability index is on record?
**A.** 4.42

**Q.** With SCAKLCEPQWFYEETESSDDVEVL as the variant, how does the protein stability index read?
**A.** 4.19

**Q.** With GCAKLCEPQWFYEETESSDDVEVL as the variant, how does the protein stability index read?
**A.** 4.56
